Data as given in patent US20210301011A1, “COMPOSITION FOR PROPHYLAXIS OR TREATMENT OF IL-8 RELATED DISEASES” (CHUGAI SEIYAKU KABUSHIKI KAISHA, priority 2016, published 2021).
Entries after “also recorded” stand apart in the source; their conditions may differ.

Columns and labels:
Format in all cases: in vivo, cynomolgus monkeys
adenomyosis lesions = test: Adenomyosis lesions in surgically-induced endometriosis monkey models; conditions: one case per group, compared to vehicle group
Description: After the final laparoscopic observation six months after the start of antibody administration in surgically-induced endometriosis monkey models, the uteri collected during autopsy were fixed with 10% neutral buffered formalin and HE-stained for observation. Endometrial tissues analogous to those of adenomyosis were strongly seen in the uterus in one case of the vehicle group as well as in one case of the antibody administration group. […] Thus, the monkeys were considered as being a human adenomyosis complication model, and the endometrial tissues in the myometria of these single cases were compared.

post-surgical adhesion [1] = test: Adhesion after surgery (area surrounding the incision site in the abdominal wall) in endometriosis monkey models; conditions: 10 mg/kg; before vs six months after initiation of administration
Protocol: Specifically, adhesion to the area surrounding the incision site on the abdominal wall was compared before and after administration and evaluated by five evaluators on a three-point scale: (1) Improved, (2) Stable, and (3) Progressed. Ratings with a consensus among three or more of the five evaluators were adopted; otherwise (2) Stable was used. Evaluations were carried out on six monkeys in the vehicle group as well as seven monkeys in the antibody […]/[…]-[…] administration group. […] The monkey with “Progressed” was an individual in which the blood concentration of antibody […]/[…]-[…] had decreased due to anti-antibody production.

post-surgical adhesion [2] = test: Post-surgical adhesion-induced monkey model; set-up: key: ∘: Adhesion found; x: No adhesion; conditions: 10 mg/kg i.v. one hour or less after surgery; laparoscopy 24 to 35 days after; per animal
Protocol: To prepare a post-surgical adhesion-induced model, female cynomolgus monkeys 9 to 16 years of age (provided by the Tsukuba Primate Research Center at the National Institutes of Biomedical Innovation, Health and Nutrition) were treated under anesthesia as follows. Anesthesia was performed using balanced anesthesia of ketamine/xylazine (mixed at an adequate ratio of about 2:1) and isoflurane. An incision of 5 to 6 cm was made in the median line of the abdominal wall. After opening the abdomen, a 1-cm incision was made on the uterine corpus and sutured with 4 stitches using a single suture. Then, the whole uterus was brushed five times with gauze. Next, a 1-cm incision was made to the right abdominal wall peritoneal part at 2 cm from the incised median line of the abdominal wall and sutured by running suture with 4 stitches using an absorbable suture. After suture, the sutured part was brushed five times with gauze. Likewise, the peritoneum of left abdominal wall was incised, sutured, and brushed with gauze. Finally, the median line of abdominal wall was sutured by running suture with 10 to 11 stitches. The entire steps were completed in one hour or less. The antagonist Antisedan (in roughly the same amount as that of xylazine) and the antibiotic cephradine were administered at the time of awakening after surgery. Then, the pain reliever Zalban was administered for two days after surgery, and the monkeys were observed regularly every day to confirm the absence of post-surgical abnormalities. At laparoscopic observation, anesthesia and post-surgical monitoring were also performed in the same way.
The control group was untreated. 24 to 35 days after administration of the anti-IL-8 antibody, laparoscopy was performed to observe the adhesion formed due to incision, suture, and blushing with gauze. The abdomen was incised in the median line under anesthesia, and laparoscopic observation was performed by inserting a trocar and then introducing a laparoscope. The laparoscope was connected to a video system (KARL STORZ) and a monitor. The video system was used for recording, and the monitor was used for intraperitoneal observation. The size of the adhesion was measured using a graduated bar or graduated forceps. The presence, range, and location of adhesion were assessed during laparoscopic observation. […] Although adhesion was found in individual No. 206 in the anti-IL-8 antibody administration group, no adhesion was found in the right and left abdominal wall peritoneum or at the uterine incision site in individual No. 201. […] Those skilled in the art will naturally appreciate that anti-IL-8 antibodies may exert a stronger adhesion formation-preventive effect by appropriately altering the timing of administration or such. […]

B1: H1009/L395-F1974m: H1009-F1974m (SEQ ID NO:36) heavy chain, L395-kOMT light chain; the anti-IL-8 antibody of Table 29 (antibody)
heavy: QVQLVESGGGLVQPGGSLRLSCAASGFTFSDYYLSWVRQAPGKGLEWVGLIRNKDNYHTPEYSASVKGRFTISRDDSKNSLYLTMSDLKTEDTAVYYCARENHRYDVELAYWGQGTLVTVSSASTKGPSVFPLAPSSKSTSGGTAALGCLVKDYFPEPVTVSWNSGALTSGVHTFPAVLQSSGLYSLSSVVTVPSSSLGTQTYICNVNHKPSNTKVDKKVEPKSCDKTHTCPPCPAPELRRGPSVFLFPPKPKDTLMISRTPEVTCVVVDVSHEDPEVKFNWYVDGVEVHNAKTKPREEQYNSTYRVVSVLTVLHQDWLNGKEYKCKVSNKGLPSSIEKTISKAKGQPREPQVYTLPPSREEMTKNQVSLTCLVKGFYPSDIAVEWESNGQPENNYKTTPPVLDSDGSFFLYSKLTVDKSRWQQGNVFSCSVLHEALHAHTTRKELSLSP
light: DIQMTQSPSSLSASVGDRVTITCRASEIIYSYLAWYQQKPGKAPKLLIYKAKTHADGVPSRFSGSGSGTDFTFTISSLQPEDIATYYCKHHFGFPRTFGQGTKVEIKRTVAAPSVFIFPPSDEQLKSGTASVVCLLNNFYPREAKVQWKVDNALQSGNSQESVTEQDSKDSTYSLSSTLTLSKADYEKHKVYACEVTHQGLSSPVTKSFNRGEC
- histology of adenomyosis lesions (HE staining) (adenomyosis lesions): atrophy of endometrial epithelia in the adenomyosis lesions as well as reduction and atrophy of stromal cells were observed; also recorded: Atrophy of endometrial epithelium, and atrophy and reduction of stromal cells were observed
- post-surgical adhesion: Improved (monkeys/total) (post-surgical adhesion [1]): 6/7
- post-surgical adhesion: Progressed (monkeys/total) (post-surgical adhesion [1]): 1/7
- post-surgical adhesion: Stable (monkeys/total) (post-surgical adhesion [1]): 0/7
- adhesion at incision site: Abdominal wall, Median line (post-surgical adhesion [2]): ∘
- adhesion at incision site: Abdominal wall, Peritoneum (L) (post-surgical adhesion [2]): ∘ and x
- adhesion at incision site: Abdominal wall, Peritoneum (R) (post-surgical adhesion [2]): ∘ and x
- adhesion at incision site: Uterus (post-surgical adhesion [2]): ∘ and x
